Measurements reported in the supplement of paper PMC9233669.
Fewer inactive variants are shown than the library holds.

How the values were obtained:
[1] = tested on: biotinyl-Trp-oxazolone; test: self-aminoacylation, catalytic enhancement (BWO) (fold over background); higher = more active; k-Seq, kA / k0A0; sequences stand for … in GGGAAUGGAUCCACAUCUACGAAUUC…UUCACUGCAGACUUGACGAAGCUG
Procedure, shortened: (§1)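 Working in 50 μL HEPES/NaCl/KCl/MgCl2/CaCl2 buffer with 5% acetonitrile at pH 6.9–7.0, mutagenized RNA pools (0.43 μM; 21-nt variable region) were reacted with 2–1250 μM of each biotinyl-aminoacyl-oxazolone for 90 minutes at room temperature. Streptavidin capture followed, with quantification by triplicate qPCR and Illumina sequencing. Catalytic enhancement is reported as median kA over the uncatalyzed rate, the low-activity peak of a bimodal Gaussian fit to the data.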

[2] = tested on: biotinyl-Met-oxazolone; test: self-aminoacylation, catalytic enhancement (BMO) (fold over background); higher = more active; k-Seq, kA / k0A0; sequences stand for … in GGGAAUGGAUCCACAUCUACGAAUUC…UUCACUGCAGACUUGACGAAGCUG
Procedure, shortened: as §1

[3] = tested on: biotinyl-Phe-oxazolone; test: self-aminoacylation, catalytic enhancement (BFO) (fold over background); higher = more active; k-Seq, kA / k0A0; sequences stand for … in GGGAAUGGAUCCACAUCUACGAAUUC…UUCACUGCAGACUUGACGAAGCUG
Procedure, shortened: as §1

[4] = tested on: biotinyl-Leu-oxazolone; test: self-aminoacylation, catalytic enhancement (BLO) (fold over background); higher = more active; k-Seq, kA / k0A0; sequences stand for … in GGGAAUGGAUCCACAUCUACGAAUUC…UUCACUGCAGACUUGACGAAGCUG
Procedure, shortened: as §1

[5] = tested on: biotinyl-Val-oxazolone; test: self-aminoacylation, catalytic enhancement (BVO) (fold over background); higher = more active; k-Seq, kA / k0A0; sequences stand for … in GGGAAUGGAUCCACAUCUACGAAUUC…UUCACUGCAGACUUGACGAAGCUG
Procedure, shortened: as §1

[6] = tested on: biotinyl-Ile-oxazolone; test: self-aminoacylation, catalytic enhancement (BIO) (fold over background); higher = more active; k-Seq, kA / k0A0; sequences stand for … in GGGAAUGGAUCCACAUCUACGAAUUC…UUCACUGCAGACUUGACGAAGCUG
Procedure, shortened: as §1

Sequence | self-aminoacylation [1] | self-aminoacylation [2] | self-aminoacylation [3] | self-aminoacylation [4] | self-aminoacylation [5] | self-aminoacylation [6]
CCACAGUUCAAGCUAUCGGUC [Fam1B.1 aminoacylation ribozyme variant] | 0.749 | 1.25 | 0.851 | 1.1 | 1.27 | 1.21
CCACAGUUCAAGGAAUCGGUC [Fam1B.1 aminoacylation ribozyme variant] | 1.18 | 1.12 | 1.09 | 1.33 | 1.19 | 1.23
CCACAGUUCAGGCAAUCGGUC [Fam1B.1 aminoacylation ribozyme variant] | 2.25 | 1.65 | 8.63 | 2.28 | 2.27 | 2.02
CCACAUCUCAAGCAAUCGGUC [Fam1B.1 aminoacylation ribozyme variant] | 1.08 | 0.985 | 1.41 | 1.19 | 1.33 | 1.3
CCACAUUGCAAGCAAUCGGUC [Fam1B.1 aminoacylation ribozyme variant] | 1.58 | 1.67 | 1.99 | 1.87 | 1.68 | 1.75
CCACAUUUCAAGCAAUCGGUG [Fam1B.1 aminoacylation ribozyme variant] | 9.35 | 8.9 | 59.1 | 12.9 | 5.89 | 6.23
CCACAUUUCAAGCAAUCGUUC [Fam1B.1 aminoacylation ribozyme variant] | 0.727 | 0.83 | 1.13 | 0.798 | 1.16 | 0.94
CCACAUUUCAAGCAAUUGGUC [Fam1B.1 aminoacylation ribozyme variant] | 0.656 | 1.17 | 0.932 | 0.857 | 0.994 | 1.22
CCACCCUUAAAGCAAUCGGUC [Fam1B.1 aminoacylation ribozyme variant] | 1.4 | 0.96 | 1.59 | 1.05 | 1.18 | 1.23
CCACCCUUCAAGCAAUCGCUC [Fam1B.1 aminoacylation ribozyme variant] | 2.73 | 1.87 | 0.977 | 2.55 | 2.28 | 1.65
CCACCCUUCAAGCAAUCGGUC [Fam1B.1 aminoacylation ribozyme variant] | 11.3 | 0.936 | 19.9 | 1.16 | 1.32 | 1.05
CCACCCUUCAAGCUAUCGGUC [Fam1B.1 aminoacylation ribozyme variant] | 1.09 | 0.845 | 0.937 | 1.11 | 1.43 | 1.08
CCACCCUUCAAGUAAUCGGUC [Fam1B.1 aminoacylation ribozyme variant] | 7.3 | 1.18 | 7.55 | 1.13 | 1.25 | 1.15
CCACCUUUCAAGCAAUCGGUC [Fam1B.1 aminoacylation ribozyme variant] | 1.97 | 1.4 | 2.62 | 1.35 | 1.72 | 1.44
CCACGAUUCAAGCAAUCGGUC [Fam1B.1 aminoacylation ribozyme variant] | 1.95 | 1.78 | 1.89 | 1.17 | 1.47 | 1.51
CCACGCUUCAACCAAUCGGUC [Fam1B.1 aminoacylation ribozyme variant] | 40.4 | 1.37 | 65.2 | 1.99 | 1.55 | 1.16
CCACGCUUCAAGCAAUCAGUC [Fam1B.1 aminoacylation ribozyme variant] | 9.22 | 0.811 | 27.4 | 0.886 | 0.83 | 0.745
CCACGCUUCAAGCAAUCGGAC [Fam1B.1 aminoacylation ribozyme variant] | 1.24 | 0.64 | 1.87 | 0.696 | 0.666 | 0.794
CCACUAUUCAAGCAAUCGGUC [Fam1B.1 aminoacylation ribozyme variant] | 1.23 | 0.916 | 1.75 | 0.944 | 1.09 | 1.04
CCACUCUUCAAGCAGUCGGUC [Fam1B.1 aminoacylation ribozyme variant] | 1.28 | 1.03 | 1.07 | 1.24 | 1.1 | 1.04
CCACUCUUCAGGCAAUCGGUC [Fam1B.1 aminoacylation ribozyme variant] | 1.23 | 1.34 | 0.929 | 1.33 | 1.49 | 1.31
CCACUCUUCGAGCAAUCGGUC [Fam1B.1 aminoacylation ribozyme variant] | 1.32 | 1.03 | 0.996 | 0.964 | 1.24 | 1.19
CCACUUCAAACAAUCCGUCUG [Fam1A.1 aminoacylation ribozyme variant] | 1.85 | 0.967 | 2.13 | 0.795 | 1.01 | 1.08
CCACUUCAAACAAUCGGCCUG [Fam1A.1 aminoacylation ribozyme variant] | 145 | 4.68 | 425 | 7.46 | 4.05 | 4.3
CCACUUCAAACAAUCGGUGUG [Fam1A.1 aminoacylation ribozyme variant] | 9.94 | 1.79 | 12.5 | 2.34 | 1.33 | 1.13
CCACUUCAAACACUCGGUCUG [Fam1A.1 aminoacylation ribozyme variant] | 1.5 | 1.75 | 4.37 | 1.73 | 2.14 | 1.45
